Data as given in patent publication US20100303812A1 (SMART TARGETING, published 2010).

T1: human DLL1 (on transfected CHO cells) (human, UniProt O00548 18-723)
T1 construct: whole, on cells; also called delta-like-1
T1 sequence (looked up): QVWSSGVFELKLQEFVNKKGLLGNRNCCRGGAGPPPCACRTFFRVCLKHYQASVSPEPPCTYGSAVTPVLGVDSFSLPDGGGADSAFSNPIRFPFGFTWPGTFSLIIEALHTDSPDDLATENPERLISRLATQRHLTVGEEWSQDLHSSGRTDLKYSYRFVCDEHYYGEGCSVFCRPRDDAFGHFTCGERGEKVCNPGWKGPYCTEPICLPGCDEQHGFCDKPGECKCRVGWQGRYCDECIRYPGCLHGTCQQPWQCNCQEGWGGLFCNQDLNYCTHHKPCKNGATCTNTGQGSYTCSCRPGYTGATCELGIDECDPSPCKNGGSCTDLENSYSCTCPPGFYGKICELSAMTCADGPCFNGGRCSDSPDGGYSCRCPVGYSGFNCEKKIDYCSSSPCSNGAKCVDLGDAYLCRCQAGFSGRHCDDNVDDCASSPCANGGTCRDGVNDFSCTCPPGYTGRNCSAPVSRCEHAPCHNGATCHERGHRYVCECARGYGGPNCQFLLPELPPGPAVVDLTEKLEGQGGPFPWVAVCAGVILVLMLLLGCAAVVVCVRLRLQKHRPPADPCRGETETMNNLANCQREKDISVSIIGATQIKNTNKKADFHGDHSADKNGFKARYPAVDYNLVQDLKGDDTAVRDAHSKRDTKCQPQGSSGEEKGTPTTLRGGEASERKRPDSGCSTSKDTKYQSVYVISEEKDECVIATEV


How the values were obtained:
[1] = biological target: T2, pure recombinant Dll4 (human, UniProt Q9NR61 27-524); experiment: SPR, Biacore A100; immobilized recombinant Dll4, antibody at 20, 10, 5, 2.5 and 1.2 µg/ml
T2 construct: also called recombinant DLL4 ligand; immobilized Dll4

[2] = biological target: T3, mouse DLL4 (on transfected CHO cells) (mouse, UniProt Q9JI71 27-686); experiment: flow cytometry on transfected CHO cells (STL4 as one of 'all three')
T3 construct: also called murine DLL4; murine Dll4

[3] = biological target: T1, human DLL1 (on transfected CHO cells); experiment: flow cytometry on transfected CHO cells (STL4 as one of the three)
[4] = biological target: T4, human Jagged1 (on transfected CHO cells) (human, UniProt P78504 34-1218); experiment: as above
T4 construct: whole, on cells

[5] = biological target: T5, human Jagged2 (on transfected CHO cells) (human, UniProt Q9Y219 24-1238); experiment: as above
T5 construct: whole, on cells
T5 sequence (Q9Y219 24-1238): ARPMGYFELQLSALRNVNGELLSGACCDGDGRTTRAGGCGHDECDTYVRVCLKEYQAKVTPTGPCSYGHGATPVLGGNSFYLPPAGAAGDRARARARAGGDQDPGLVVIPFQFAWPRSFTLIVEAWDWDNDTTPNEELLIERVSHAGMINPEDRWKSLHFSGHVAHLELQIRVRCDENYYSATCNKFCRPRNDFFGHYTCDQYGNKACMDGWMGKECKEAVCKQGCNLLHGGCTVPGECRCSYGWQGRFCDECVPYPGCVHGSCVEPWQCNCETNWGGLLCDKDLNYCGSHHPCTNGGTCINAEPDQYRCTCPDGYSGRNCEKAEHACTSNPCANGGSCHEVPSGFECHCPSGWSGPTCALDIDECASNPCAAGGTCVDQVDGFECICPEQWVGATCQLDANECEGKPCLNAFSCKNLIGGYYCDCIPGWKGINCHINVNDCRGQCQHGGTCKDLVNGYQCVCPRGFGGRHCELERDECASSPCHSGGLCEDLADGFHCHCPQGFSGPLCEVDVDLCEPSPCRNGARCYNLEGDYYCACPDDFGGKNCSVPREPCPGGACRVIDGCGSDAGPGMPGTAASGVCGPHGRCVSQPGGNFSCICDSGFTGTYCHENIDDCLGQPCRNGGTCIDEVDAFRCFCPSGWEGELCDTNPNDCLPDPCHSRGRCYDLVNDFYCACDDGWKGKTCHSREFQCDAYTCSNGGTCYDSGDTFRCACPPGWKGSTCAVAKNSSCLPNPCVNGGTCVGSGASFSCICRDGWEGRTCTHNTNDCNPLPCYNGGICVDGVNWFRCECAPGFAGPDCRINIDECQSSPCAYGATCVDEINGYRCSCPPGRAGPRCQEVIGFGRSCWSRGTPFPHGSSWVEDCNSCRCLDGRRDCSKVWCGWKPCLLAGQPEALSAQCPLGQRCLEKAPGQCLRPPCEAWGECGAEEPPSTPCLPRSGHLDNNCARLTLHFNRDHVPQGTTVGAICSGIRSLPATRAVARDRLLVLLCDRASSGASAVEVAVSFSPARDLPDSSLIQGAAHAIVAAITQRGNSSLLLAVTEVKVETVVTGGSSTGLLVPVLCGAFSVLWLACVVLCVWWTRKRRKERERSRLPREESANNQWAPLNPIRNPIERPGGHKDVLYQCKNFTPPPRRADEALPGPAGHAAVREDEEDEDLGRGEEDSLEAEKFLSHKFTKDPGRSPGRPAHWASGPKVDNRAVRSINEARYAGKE

T2 sequence (Q9NR61 27-524 limits assumed): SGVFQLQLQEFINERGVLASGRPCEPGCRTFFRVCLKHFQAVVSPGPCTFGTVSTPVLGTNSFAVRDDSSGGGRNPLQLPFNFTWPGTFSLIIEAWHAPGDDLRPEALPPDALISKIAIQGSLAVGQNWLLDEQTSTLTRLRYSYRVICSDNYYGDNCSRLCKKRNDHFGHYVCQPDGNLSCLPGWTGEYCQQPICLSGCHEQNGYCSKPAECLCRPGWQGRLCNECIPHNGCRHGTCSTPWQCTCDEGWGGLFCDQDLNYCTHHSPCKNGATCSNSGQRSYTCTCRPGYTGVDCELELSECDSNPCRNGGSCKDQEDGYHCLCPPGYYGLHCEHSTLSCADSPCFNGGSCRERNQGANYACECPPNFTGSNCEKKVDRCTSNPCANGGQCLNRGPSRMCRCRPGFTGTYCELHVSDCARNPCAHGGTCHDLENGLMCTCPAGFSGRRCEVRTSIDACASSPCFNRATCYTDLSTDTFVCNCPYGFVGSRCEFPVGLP
T3 sequence (Q9JI71 other isoform, or with tags, fused parts or gaps limits assumed): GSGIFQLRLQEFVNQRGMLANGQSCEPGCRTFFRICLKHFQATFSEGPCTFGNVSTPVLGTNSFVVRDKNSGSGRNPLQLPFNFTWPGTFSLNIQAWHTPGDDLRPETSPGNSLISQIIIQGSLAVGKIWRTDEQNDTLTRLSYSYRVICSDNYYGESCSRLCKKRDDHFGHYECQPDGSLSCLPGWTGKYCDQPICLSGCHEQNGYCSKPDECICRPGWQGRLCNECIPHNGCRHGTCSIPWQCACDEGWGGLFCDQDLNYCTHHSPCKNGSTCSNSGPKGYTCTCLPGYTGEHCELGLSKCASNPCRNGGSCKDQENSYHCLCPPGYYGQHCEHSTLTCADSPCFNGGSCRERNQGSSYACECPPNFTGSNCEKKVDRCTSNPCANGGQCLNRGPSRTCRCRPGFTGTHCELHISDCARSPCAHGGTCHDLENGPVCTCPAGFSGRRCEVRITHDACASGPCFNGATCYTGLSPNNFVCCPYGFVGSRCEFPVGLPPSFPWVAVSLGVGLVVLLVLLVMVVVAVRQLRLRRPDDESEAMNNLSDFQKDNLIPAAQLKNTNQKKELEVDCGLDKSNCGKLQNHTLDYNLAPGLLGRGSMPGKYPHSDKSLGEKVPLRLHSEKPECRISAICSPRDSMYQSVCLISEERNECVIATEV
T4 sequence (P78504 34-1218): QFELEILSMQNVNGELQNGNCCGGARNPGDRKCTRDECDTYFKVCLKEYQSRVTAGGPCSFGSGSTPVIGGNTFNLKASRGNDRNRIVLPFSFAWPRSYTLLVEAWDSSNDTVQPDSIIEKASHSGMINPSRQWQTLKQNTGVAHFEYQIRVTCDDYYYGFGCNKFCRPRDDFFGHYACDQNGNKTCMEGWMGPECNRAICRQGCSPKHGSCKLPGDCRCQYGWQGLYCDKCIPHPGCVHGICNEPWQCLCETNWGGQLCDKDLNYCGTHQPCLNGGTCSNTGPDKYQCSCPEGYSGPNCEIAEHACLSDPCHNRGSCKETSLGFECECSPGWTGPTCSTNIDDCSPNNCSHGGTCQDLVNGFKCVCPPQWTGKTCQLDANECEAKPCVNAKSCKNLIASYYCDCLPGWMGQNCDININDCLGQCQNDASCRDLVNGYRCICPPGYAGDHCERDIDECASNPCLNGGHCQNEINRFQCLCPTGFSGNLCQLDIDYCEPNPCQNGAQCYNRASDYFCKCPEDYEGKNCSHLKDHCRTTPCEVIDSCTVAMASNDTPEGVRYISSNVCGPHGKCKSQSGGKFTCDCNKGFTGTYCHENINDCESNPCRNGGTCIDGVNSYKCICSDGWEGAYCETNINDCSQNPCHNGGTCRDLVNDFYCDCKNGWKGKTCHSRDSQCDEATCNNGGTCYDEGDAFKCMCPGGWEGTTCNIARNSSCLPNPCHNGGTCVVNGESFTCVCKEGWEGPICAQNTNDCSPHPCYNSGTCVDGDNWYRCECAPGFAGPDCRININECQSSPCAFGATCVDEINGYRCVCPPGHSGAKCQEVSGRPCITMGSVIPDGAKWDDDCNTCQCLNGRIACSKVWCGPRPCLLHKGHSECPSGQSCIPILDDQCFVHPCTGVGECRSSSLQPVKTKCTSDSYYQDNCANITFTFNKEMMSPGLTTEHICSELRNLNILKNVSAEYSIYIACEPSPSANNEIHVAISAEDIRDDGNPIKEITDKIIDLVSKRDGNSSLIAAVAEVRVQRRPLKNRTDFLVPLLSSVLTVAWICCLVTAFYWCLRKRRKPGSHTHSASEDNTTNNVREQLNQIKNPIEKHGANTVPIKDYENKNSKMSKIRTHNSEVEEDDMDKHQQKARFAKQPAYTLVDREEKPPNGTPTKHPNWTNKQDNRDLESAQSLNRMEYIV

Row | Ka [1] | Kd [1] | koff [1] | binding result [2] | binding result [3] | binding result [4] | binding result [5] | Binder
1 | 2.45e+09 M⁻¹ | 0.408 nM | 8.79e-05 s⁻¹ | – | – | – | – | cSTL4 (antibody, V domains shown, Chimeric form of STL4: mouse VH and VL fused to human IgG heavy and kappa constant regions, expressed from pCAcc vectors; also called chimeric anti-Dll4 antibody; chimeric antibody; not shown: human IgG heavy constant region CH1-H-CH2-CH3; human immunoglobulin kappa light chain constant region) VH: EVQLQQSGPELVKPGASVKMSCKASGYTFTSYVMHWVKQKPGQGLEWIGYIIPYNDGTKYNEKFKGKATLTSDKSSSTAYMELSSLTSEDSAVYYCARSEDYDHFDYWGQGTTVTVSS VL: QIVLSQSPVILSASPGEKVTMTCRASSSVSFMHWYQQKPGSSPKPWIYATSNLTSGVPTRFSGSGSGTSYSLTISRVEAEDAATYYCQQWSSNPFTFGSGTKLEIKR
2 | – | – | – | no binding | no binding | no binding | no binding | STL4 (antibody, V domains shown, Mouse monoclonal antibody (BALB/c hybridoma, purified from ascites); mouse IgG1 served as the control; also called anti-DLL4 antibody; anti-Dll4-antibody (STL4)) VH: EVQLQQSGPELVKPGASVKMSCKASGYTFTSYVMHWVKQKPGQGLEWIGYIIPYNDGTKYNEKFKGKATLTSDKSSSTAYMELSSLTSEDSAVYYCARSEDYDHFDYWGQGTTVTVSS VL: QIVLSQSPVILSASPGEKVTMTCRASSSVSFMHWYQQKPGSSPKPWIYATSNLTSGVPTRFSGSGSGTSYSLTISRVEAEDAATYYCQQWSSNPFTFGSGTKLEIKR
